{"source": "paper PMC12872393", "about": "“NCOA4 initiates ferritinophagy by avidly binding GATE16 using two short linear interaction motifs” (Life Science Alliance, 2026)", "molecules": {"B1": {"name": "NCOA4^383-522: NCOA4 fragment of residues 383–522; biotinylated AviTag-His6-NCOA4-MBP in vitro, EGFP fusion in cells (protein)", "chain": "SMVTEDWLVQNHQDPCKVEEVCRANEPCTSFAECVCDENCEKEALYKWLLKKEGKDKNGMPVEPKPEPEKHKDSLNMWLCPRKEVIEQTKAPKAMTPSRIADSFQVIKNSPLSEWLIRPPYKEGSPKEVPGTEDRAGKQK", "modifications": "biotin on the AviTag (BirA co-expressed); left off: AviTag, N-terminal, kept | His6, N-terminal, kept | MBP, C-terminal, kept", "notes": "NCOA4 fragment of residues 383–522; biotinylated AviTag-His6-NCOA4-MBP in vitro, EGFP fusion in cells"}}, "key": {"lysosomes (LAMP1)": {"tested_on": "lysosomes (LAMP1)", "experiment": "Immunofluorescence colocalization of GFP-NCOA4^383−522 with lysosomes (LAMP1)", "format": "cell-based", "settings": "GFP-fused constructs in NCOA4Δ HeLa cells, 50 μM DFO 24 h; anti-GFP and anti-LAMP1; area of overlap per nucleus and Manders' coefficient", "procedure": "For colocalization assays, NCOA4^383−522 cell lines were seeded on glass coverslips in a 12-well cell culture plate in DMEM as above. After 24 h, media were aspirated and replaced with DMEM supplemented with 50 μM DFO, and cells were incubated for an additional 24 h. Cells were then fixed with 4% paraformaldehyde in PBS (150 mM NaCl, 2.7 mM KCl, 10 mM Na2HPO4, 1.8 mM KH2PO4, pH 8.0) for 15 min at RT, quenched with 100 mM glycine in PBS for 10 min, and washed three times with PBS. Cells were next permeabilized with 0.5% Triton X-100 in PBS for 10 min, washed once with PBS, and blocked for 30 min in 2% BSA in PBS. Slides were next incubated in anti-GFP mouse antibody (sc-9996; Santa Cruz) diluted 1:200, anti-LAMP1 rabbit antibody (9091T; Cell Signaling) diluted 1:200, and Hoechst stain (H3570; Invitrogen) diluted 1:1,000, in 2% BSA in PBS for 1 h. […]\nAll image analysis was conducted in FIJI ([Schindelin et al, 2012]). […] The overlapping regions were then measured, and the area per nucleus was recorded. […] For all images, threshold values were manually chosen for the pink and green channels, and Manders’ value, which calculates the fraction of the pink signal that overlaps green signal, was recorded."}, "[1]": {"tested_on": "ferritin heavy chain (FTH1)", "experiment": "Western blot assay of ferritin degradation (ferritinophagy) in HeLa cell lines", "format": "cell-based", "settings": "EGFP-fused constructs stably integrated in NCOA4Δ HeLa cells; 40 μM FAC 24 h then 50 μM DFO 24 h; quantitative Western blot FTH1/tubulin, triplicate", "source_text": "Stably integrated NCOA4^383−522 cell lines were generated via retroviral transfection of the relevant NCOA4^383−522 construct in a CMV-enhancer–bearing pMRX plasmid (84573; Addgene) into NCOA4Δ HeLa cells (a gift from Prof. M. Poli, University of Brescia, Italy) ([Gryzik et al, 2021]). In this pMRX plasmid, EGFP was fused to the N terminus of NCOA4^383−522 and its mutants with a 13-residue GS linker. HeLa cells were transfected and selected as described previously ([Sena-Esteves & Gao, 2018]).\nAfter 24-h, all media were aspirated and replaced with either DMEM or DMEM supplemented with 40 μM ferric ammonium citrate (FAC). After an additional 24 h, all media were aspirated and replaced with either DMEM or DMEM supplemented with 50 μM deferoxamine (DFO). After an additional 24-h incubation, cells were trypsinized (200 μl, 5 min, 37°C), pelleted via centrifugation at 100g for 1 min, resuspended in Dulbecco’s PBS (D8537; Sigma-Aldrich), and pelleted as above before undergoing flash freezing in liquid nitrogen and storage at −80°C.\nFrozen cell pellets were resuspended in 100 μl 4X Laemmli buffer with Halt protease and phosphatase inhibitor (78440; Thermo Fisher Scientific) and lysed with a 29-gauge syringe. […] Ferritin levels were then measured by densitometry in FIJI ([Schindelin et al, 2012]) and normalized to tubulin intensity measured as above."}}, "data": [{"molecule": "B1", "values": [{"measurement": "NCOA4:lysosome colocalization (in words)", "setting": "lysosomes (LAMP1)", "value": "significant colocalization"}, {"measurement": "ferritin degradation upon iron chelation with DFO (in words)", "setting": "[1]", "value": "ferritin degradation was robust"}]}]}
